Drawing on PMC11883000 (2025), this text covers Kd for two molecules.

What is called Kd is the concentration at which binding is half-saturated. A low value points to higher affinity.

The target in assay [1] is T1, ASH1L plant homeodomain (PHD) finger, wild type (aa 2579-2629) (human, UniProt Q9NR48 2579-2629).
T1 chain: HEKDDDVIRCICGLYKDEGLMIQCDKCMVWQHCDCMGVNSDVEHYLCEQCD

The target in assay [2] is T1, ASH1L plant homeodomain (PHD) finger, …. The experiment in a line: MST.
Assay [3] addresses T2, ASH1L PHD finger-BAH domain (human, UniProt Q9NR48 2579-2834).
T2 chain: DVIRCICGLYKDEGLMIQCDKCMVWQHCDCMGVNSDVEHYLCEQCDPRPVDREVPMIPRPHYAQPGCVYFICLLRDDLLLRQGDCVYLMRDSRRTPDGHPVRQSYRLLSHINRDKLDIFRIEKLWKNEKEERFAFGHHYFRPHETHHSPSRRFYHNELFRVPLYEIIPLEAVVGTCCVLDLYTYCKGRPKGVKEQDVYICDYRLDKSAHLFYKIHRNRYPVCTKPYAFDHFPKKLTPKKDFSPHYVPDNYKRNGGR

Assay [4] addresses ASH1L PHD finger Q2601K (human, UniProt Q9NR48 2579-2629, Q2601K).
Assay [5] has as its target T3, ASH1L PHD finger Y2693K (human, UniProt Q9NR48 2579-2629).
T3 chain: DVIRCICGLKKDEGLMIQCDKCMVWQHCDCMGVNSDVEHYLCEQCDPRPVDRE

Assay [6] has as its target ASH1L PHD finger S2618A (human, UniProt Q9NR48 2579-2629, S2618A).
Assay [7] has as its target ASH1L PHD finger D2595A (human, UniProt Q9NR48 2579-2629, Substitution of D2595 with alanine).
For assay [8], the target named is ASH1L PHD finger D2584A (human, UniProt Q9NR48 2579-2629, Substitution of D2584 with alanine).
In assay [9] the target is ASH1L PHD finger D2603A (human, UniProt Q9NR48 2579-2629, D2603A).

Read-outs that look alike come from different tables or passages of the source. Ends that are not written are not given here. Me2 = dimethylation (dimethyl-lysine); Me3 = trimethyl on lysine side chain

In turn, ARTK(Me2)QTARKSTG [histone H3K4me2 peptide (aa 1-12 of H3)] yielded a Kd in [1] of 1000 nM.

ARTK(Me3)QTARKSTG [histone H3K4me3 peptide (aa 1-12 of H3)]: the equilibrium dissociation constant (Kd) came out at 1100 nM in [2]; 1000 nM in [3]; 1600 nM in assay [1]; 1000 nM in assay [4]; 1800 nM in assay [5]; 5900 nM in assay [6]. In addition, the figures for the Kd in assay [7], in assay [8] and in assay [9] were 6700 nM, 4600 nM and 2000 nM, respectively.
